Data reported in publication PMC5028032, “Linkage between Fitness of Yeast Cells and Adenylate Kinase Catalysis” (PLoS ONE, 2016).

System: Nc1ncnc2c1ncn2[C@@H]1O[C@H](COP(=O)(O)OP(=O)(O)OP(=O)(O)O)[C@@H](O)[C@H]1O
Test: purified protein
Settings: 300 μM AMP constant, 2 mM MgCl2, 80 mM KCl, 100 mM Tris pH 7.5, 20°C

Substance | Km | kcat | kcat/Km
Adkeco (Escherichia coli K-12) | 72 ± 8 µM | 305 s⁻¹ | 4.26e+06 M⁻¹ s⁻¹
Adkeco (Escherichia coli K-12; G10V) | 411 ± 61 µM | 60 s⁻¹ | 140000 M⁻¹ s⁻¹
Adkeco (Escherichia coli K-12; T163C) | 37 ± 2 µM | 143 s⁻¹ | 3.9e+06 M⁻¹ s⁻¹
